Data published in patent publication US20190112365A1 (EISAI R AND D MANAGEMENT, published 2019).

What was measured:
[1] = target: T1, Peptide antigen CNIKHVPGGGSVQIVYKPVD (human, conjugated to BSA in the ELISA (to KLH via the N-terminal cysteine in the immunogen)); experiment: ELISA screening of hybridoma clones
T1 construct: also called original immunization peptide; immunizing Tau peptide
T1 peptide: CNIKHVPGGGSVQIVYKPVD
Description: One month after the boost immunization, antisera were collected from the mice and antibody titers assessed by ELISA to measure immunoreactivity against the original immunizing Tau peptide and both 2N4R and 1N3R recombinant Tau proteins. Briefly, either 150 ng of Peptide antigen conjugated to BSA or 50 ng of 2N4R or 1N3R recombinant Tau protein (Enzo Life Sciences, cat. no's BML-SE321 and BML-SE323 respectively) were used to coat each well of a 96-well plate (Costar cat. no. 2797) in 10 mM phosphate buffer, pH 7.0 at 37° C. for 1 hour. Plates were blocked in a final concentration of 1% BSA diluted in PBS at room temperature for 30 minutes. […] Following additional wash steps, antibody binding was detected by addition of 3,3′,5,5′-Tetramethylbenzidine (TMB) substrate. The enzymatic reaction was stopped with an equal volume of 2M H₂SO₄ and the well optical density was determined using a platereader at wavelength 450 nm.
Once mice with a high antibody titer had been determined, cells were isolated from the medial iliac lymph nodes and fused using polyethylene glycol with mouse myeloma SP2 cells to generate hybridomas. […] To give an approximation of relative binding, culture supernatant that was positive in the peptide ELISA and either recombinant protein, 2N4R or 1N3R, or both, were then evaluated in a competitive ELISA system. […]

[2] = target: T2, P301S mutant human 2N4R Tau, recombinant full length (human, UniProt P10636 2-758); experiment: SPR; KD on P301S-2N4R Tau against KD on wild type 2N4R Tau
T2 construct: The equivalent P301S mutant of 2N4R Tau; also called P301S-2N4R Tau; P301S Tau
T2 sequence (P10636 other isoform, or with tags, fused parts or gaps P301S P301S limits assumed): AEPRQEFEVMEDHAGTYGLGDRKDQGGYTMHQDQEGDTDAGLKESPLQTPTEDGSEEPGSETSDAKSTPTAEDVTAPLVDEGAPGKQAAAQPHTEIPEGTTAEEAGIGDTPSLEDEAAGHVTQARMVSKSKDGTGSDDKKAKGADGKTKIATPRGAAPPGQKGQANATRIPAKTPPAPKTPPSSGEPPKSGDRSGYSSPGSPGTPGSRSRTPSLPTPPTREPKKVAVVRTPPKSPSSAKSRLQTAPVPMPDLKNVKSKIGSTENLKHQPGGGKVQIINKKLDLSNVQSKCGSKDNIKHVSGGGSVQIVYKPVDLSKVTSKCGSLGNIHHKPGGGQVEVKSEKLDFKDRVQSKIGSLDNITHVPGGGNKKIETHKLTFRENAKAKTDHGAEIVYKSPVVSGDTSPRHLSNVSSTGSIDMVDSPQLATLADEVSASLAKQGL
Description: Purified antibodies from hybridomas were captured by protein A/G immobilized on a CM5 sensor chip (GE Healthcare). The wild type and P301S Tau proteins were then injected onto the sensor chip at five different concentrations and the affinity (equilibrium dissociation constant, KD) was calculated according to the manufacturer's instruction.

[3] = target: T3, HVPGG site of Tau (15-mer array peptides containing HVPGG) (human); experiment: peptide microarray; HVPGG site of the fourth repeat region against HKPGG (repeat region 3)
T3 peptide: HVPGG
Description: (§1) The diluted antibody was incubated on the chip for 16 hours at 4° C. with shaking at 140 rpm. Primary antibody was removed and the chip was washed in PBS (pH 7.4)/0.05% Tween 20. Wash buffer was removed and goat anti-mouse IgG (H+L) DyLight™680 (1:5000) and an anti-HA tag DyLight™ 800 (1:2000) in the same buffer as the primary antibody was then incubated for 45 minutes at room temperature on the chip. Detection antibody was removed and the chip was washed once again as previously. Fluorescence images were acquired on the LI-COR Odyssey™ Imaging System and the microarray data was finally analyzed using the PepSlide™ Analyser software.

[4] = target: T3, HVPGG site of Tau (15-mer array …); experiment: peptide microarray; HVPGG site of the second repeat region against HQPGG (repeat region 1)
Description: as §1

[5] = target: T3, HVPGG site of Tau (15-mer array …); experiment: peptide microarray; HVPGG site of the second repeat region against HKPGG (repeat region 3)
Description: as §1

[6] = target: T4, Human Tau 2N4R, wild type, recombinant full length (human, UniProt P10636 2-758); experiment: SPR BIAcore, mAb captured by anti-mouse IgG, Tau flowed, 1:1 Langmuir
T4 construct: Full length 2N4R isoform; monomer in SPR and ELISA; heparin-induced aggregates or seeds in the functional assays; also called Tau441; Tau-441
T4 sequence (P10636 other isoform, or with tags, fused parts or gaps limits assumed): as the sequence (P10636 other isoform, or with tags, fused parts or gaps P301S P301S limits assumed) above, with S300P counted along it
Description: All experiments were performed using a BIAcore™ T-100 instrument (GE Healthcare). 10 μL anti-human IgG (monoclonal mouse anti-human Fc) from human antibody capture kit (GE Healthcare) was diluted to 25 μL/mL in 200 μL final immobilization buffer (10 mM sodium acetate, pH 5.0). The flow rate was set to 5 μL/min, flowpath 1. Fifty μL N-hydroxysuccinamide (NETS) and 50 μL 1-ethyl-3-(3-dimethylaminopropyl) carbidiimide (EDC) were mixed and injected for 420 sec to activate the CM5 chip surface. The diluted antibody was injected for 360 seconds followed by 1 M ethanolamine for 420 seconds. The flowpath was then switched to flowpath 2. A new EDC/NHS mixture was prepared and the procedure was repeated for flow cell 2. The surface was conditioned by 2 injections of 30 sec using flowpath 1, 2 at 30 μL/min of 3M MgCl₂. For the anti-mouse surface, 10 μL anti-mouse IgG (polyclonal rabbit anti-mouse IgG) from mouse antibody capture kit (GE Healthcare) was diluted to 30 μL/mL in 324 μL final immobilization buffer (10 mM sodium acetate, pH 5.0). The flow rate was set to 5 μL/min, flowpath 3. Fifty μL NHS and 50 μL EDC were mixed and injected for 420 sec to activate the chip surface. The diluted antibody was injected for 420 sec. 1 M ethanolamine was injected for 420 sec. Flow path was switched to flowpath 4. A new EDC/NHS mixture was prepared and the procedure was repeated for flow cell 4. The surface was conditioned by 2 injections of 30 sec using flowpath 3, 4 at 30 μL/min of 10 mM glycine, pH 1.7.
Binding of humanized and mouse antibodies were analyzed by BIAcore™ to determine their relative association rates (ka), dissociation rates (kd), and equilibrium binding constants (KD). Anti-mouse or anti-human antibodies were immobilized on a CM5 chip and sample mAbs were captured on the chip. 2N4R Tau was flowed over the chip and binding observed. The binding constants kₐ, kd, and KD were determined using a 1:1 Langmuir fitting model. Both 7G6-HCzu12-based mAbs had similar kₐ and kd values (Table 8). However, the kₐ of 7G6-HCzu11 was decreased, though the kd was unaffected. Therefore, human residues in the Vh3 framework impact binding to Tau.

binding result [1]: binds
Fold difference [2]: 11 fold
fold preference in binding (average signal intensities) [3]: 33 fold
fold preference in binding (average signal intensities) [4]: 41 fold
fold preference in binding (average signal intensities) [5]: 38 fold
Kd [6]: 3.31 nM
koff [6]: 0.00153 s⁻¹
kon [6]: 464000 M⁻¹ s⁻¹
B1: murine 7G6 antibody (antibody, mouse IgG2b, V domains shown)
VH: QVQLLQPGAELVKPGASVIMSCKASGYTFTTYWITWVKQRPGQGLEWIGDIYPGSSICNYNEKFKSKATLTVDTSSSTAYMQLNSLTSEDSAVYYCAREDGYDAWFAYWGQGTLVTVSA
VL: DVLMTQTPLSLPVSLGDQASISCRSSQSILHSNGNTYLEWYLQKPGQSPKLLICKVSNRFSGVPDRFSGSGSGTDFTLKISRVEAEDLGVYYCFQGSHVPFTFGSGTKLEIK
notes: Mouse IgG2b, kappa, purified from hybridoma; also called ms7G6; mouse 7G6
